One may read the Kd as the concentration at which binding is half-saturated. The term koff denotes the rate constant with which the complex falls apart. As usually defined, the EC50 is the concentration that produces a half-maximal response. In general, kon refers to the rate constant with which the complex forms.

Consider 2 molecules from patent US20250042992A1 (University of California, published 2025).

The target of test [1] is T1, monkey DLK1 fused to mGFP, overexpressed on HEK293T cells (monkey (crab-eating macaque), UniProt A0A2K5TMQ6 24-383).
T1 construct: whole, on cells; also called crab-eating macaque DLK1; not shown: mGFP fluorescent protein fused to DLK1
T1 sequence: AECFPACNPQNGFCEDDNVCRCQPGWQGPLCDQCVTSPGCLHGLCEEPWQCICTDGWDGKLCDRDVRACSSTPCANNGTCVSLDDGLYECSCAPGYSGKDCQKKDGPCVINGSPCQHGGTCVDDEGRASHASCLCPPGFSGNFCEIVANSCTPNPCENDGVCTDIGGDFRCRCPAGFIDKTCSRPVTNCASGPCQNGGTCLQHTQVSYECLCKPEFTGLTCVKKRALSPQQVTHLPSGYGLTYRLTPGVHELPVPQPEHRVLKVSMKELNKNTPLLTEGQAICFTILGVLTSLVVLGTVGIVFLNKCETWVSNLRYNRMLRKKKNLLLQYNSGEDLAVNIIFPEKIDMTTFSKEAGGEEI
Nature of the test: KinExA on HEK293T DLK1mGFP Monkey mass pop cells detached by Versene; Error% 2.87; 95% CI 1.33nM - 3.45nM; equilibrium curves 400pM, 50nM. A general note: In KinExA the mixture passes briefly over coated beads that capture the unbound partner.

The target of test [2] is T1, monkey DLK1 fused to mGFP, …. Nature of the test: KinExA on cells, row HEK293T Monkey DLK1mGFP mass.
Test [3] has as its target T2, human DLK1 long form (isoform 1, DLK1-FL) fused to mGFP, overexpressed on HEK293T cells (human, UniProt P80370 24-383).
T2 construct: also called HEK293T DLK1 mGFP G06 (long form); DLK-FL; not shown: mGFP fluorescent protein fused to DLK1
T2 sequence: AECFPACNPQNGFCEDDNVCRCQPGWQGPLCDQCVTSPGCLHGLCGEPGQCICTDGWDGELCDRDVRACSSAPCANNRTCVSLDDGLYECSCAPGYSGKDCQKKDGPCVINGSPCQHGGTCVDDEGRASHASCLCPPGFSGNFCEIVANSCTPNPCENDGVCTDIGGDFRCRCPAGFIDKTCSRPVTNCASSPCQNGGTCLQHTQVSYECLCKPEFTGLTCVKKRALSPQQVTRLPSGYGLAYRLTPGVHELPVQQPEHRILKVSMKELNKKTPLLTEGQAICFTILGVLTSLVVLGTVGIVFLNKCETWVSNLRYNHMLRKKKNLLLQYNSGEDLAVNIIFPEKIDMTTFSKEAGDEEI
Description: KinExA on cells, block Cross Reactivity to Three Tox Models - KD by KinExA (nM), row HEK293T Human DLK1mGFP G05.

Test [4] has as its target T3, recombinant fusion protein of human DLK1 extracellular domain (ECD) and monomeric immunoglobulin Fc domain … (human, UniProt P80370 24-303).
T3 construct: also called human DLK1 ECD-mFc fusion protein; not shown: monomeric immunoglobulin Fc domain (mFc)
T3 sequence: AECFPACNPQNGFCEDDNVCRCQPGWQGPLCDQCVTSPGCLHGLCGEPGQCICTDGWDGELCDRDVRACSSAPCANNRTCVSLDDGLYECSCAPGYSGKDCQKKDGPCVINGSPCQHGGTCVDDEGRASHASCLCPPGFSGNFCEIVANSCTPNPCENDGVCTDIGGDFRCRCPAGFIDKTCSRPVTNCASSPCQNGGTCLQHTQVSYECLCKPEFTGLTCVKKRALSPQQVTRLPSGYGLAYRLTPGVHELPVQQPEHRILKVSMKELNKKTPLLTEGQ
Description: Octet384 binding kinetics using recombinant protein DLK1 ECD-mFc, row Kdis (1/s).

Test [5] deals with T3, recombinant fusion protein of human …. Nature of the test: ELISA with human DLK1 ECD-mFc fusion protein.
Test [6] has the same target. Description: ELISA on recombinant DLK1 ECD-mFc. On the technique in general: ELISA stands for enzyme-linked immunosorbent assay.
For test [7] the target is unchanged. Description: Octet384 binding kinetics using recombinant protein DLK1 ECD-mFc.
In test [8] the target is T4, mouse DLK1 fused to mGFP, overexpressed on HEK293T cells (mouse, UniProt Q09163 24-385).
T4 construct: not shown: mGFP fluorescent protein fused to DLK1
T4 sequence: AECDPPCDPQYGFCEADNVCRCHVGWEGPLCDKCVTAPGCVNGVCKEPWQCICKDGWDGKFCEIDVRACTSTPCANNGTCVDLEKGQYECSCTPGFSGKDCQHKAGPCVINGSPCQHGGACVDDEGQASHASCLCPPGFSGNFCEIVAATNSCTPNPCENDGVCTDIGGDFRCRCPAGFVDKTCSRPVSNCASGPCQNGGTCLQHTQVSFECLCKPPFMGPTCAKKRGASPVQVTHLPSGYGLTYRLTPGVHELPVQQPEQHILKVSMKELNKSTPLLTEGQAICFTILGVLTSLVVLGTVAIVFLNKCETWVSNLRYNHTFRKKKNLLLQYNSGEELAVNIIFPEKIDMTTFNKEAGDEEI
Description: flow cytometry, row HEK293T Mouse DLK1mGFP mass. For orientation: In flow cytometry, cells or beads pass a laser one at a time.

Test [9] addresses T2, human DLK1 long form (isoform 1, …). Nature of the test: KinExA on cells, row HEK293 DLK1-mGFP G05 Cells.
Test [10] addresses T3, recombinant fusion protein of human …. Nature of the test: Octet384 binding kinetics using recombinant protein DLK1 ECD-mFc, row Ka (1/Ms).

B1: humanized anti-DLK1 antibody 04-0561-F1 (IgG1) (antibody, V domains shown)
VH: QVQLQESGPGLVKPSETLSLTCTVSGFSLSIYSVHWVRQPPGKGLEWIGLIWGGGSTDYNPSLKSRVTISKDTSKNQVSLKLSSVTAADTAVYYCARKEGNYLWFAYWGQGTLVTVSS
VL: DIVMTQSPDSLAVSLGERVTMNCKSSQSLLQSSNQKNYLAWYQQKPGQPPKLLVYFASTRESGVPDRFSGSGSGTDFTLTISSVQAEDVAVYYCQQHYSIPLTFGQGTKLEIKR
Turning to B1, the dissociation constant Kd in test [1] was 2.19 nM; in test [2], 2.19 nM; in test [3], 1.11 nM; in [7], 0.0186 nM; in [9], 1.11 nM. In [4], the koff came out at 0.000898 s⁻¹. Moreover, the EC50 in [5] is roughly 0.5 nM; in [6], 0.684 nM. Also, in test [8], the binding result is on record as “no binding (tested: 20µg/ml)”. In addition, the kon in [10] is 48200 M⁻¹ s⁻¹.

B2: humanized anti-DLK1 antibody 04-0547-h2 (IgG1) (antibody, V domains shown)
VH: EVQLVESGGGLVQPGGSLRLSCAASGFSISDYYMAWVRQAPGKGLEWVANINYDGTNTYYADSVKGRFTISRDNSKNTLYLQMNSLRAEDTAVYYCVRSYYYYGMEYWGQGTTVTVSS
VL: DIQMTQSPSSLSASVGDRVTITCRASHDVSTAVAWYQQKPGKAPKLLIYSASYRYTGVPSRFSGSGSGTDFTLTISSLQPEDFATYYCQQHYRIPLTFGQGTKLEIK
notes: human kappa (P01834) and human IgG1 (P01857) constant regions
Regarding B2, the Kd worked out at 9.89 nM in [2], 5.34 nM in test [3], 0.298 nM in [7] and 5.34 nM in test [9]. Besides, the koff in [4] was determined as 0.00462 s⁻¹. For the same molecule, the “fold lower binding affinity (ELISA EC50) than 04-0561-f1 and 04-0562-h10” value in [5] is roughly 20 fold. Besides, the EC50 in test [6] is 10.3 nM. Also, the kon in test [10] came out at 15500 M⁻¹ s⁻¹.
